The values that follow come from patent US20200239555A1 (STATEN BIOTECHNOLOGY B V, published 2020).

Assay [1] has as its target T1, biotinylated native human ApoC3 (human, UniProt P02656 21-99, biotinylated (site not stated)).
T1 construct: also called biotinylated human ApoC3
Nature of the assay: SPR, IgG1 over biotinylated ApoC3 on SA chip, pH 7.4. As for the experimental part:
(§1) Biotinylated native human ApoC3 was captured on a streptavidin coated SPR chip (GE Healthcare, cat. nr. BR100032) at pH 7.4, in accordance with the method provided by Biacore, by injection of 20 μl 10 μg/ml biotinylated native human ApoC3 reaching the surface density of approximately 500 RU. 60 μL of test antibody in 1-50 nM range diluted in HBS-EP buffer (GE, cat # BR-1008-26; 0.010 M HEPES, 0.150M NaCl, 3 mM EDTA, 0.05% (v/v) surfactant P20, pH 7.4) was injected and passed through the flow cells at a flow rate of 30 μl/min, followed by an off-rate wash at pH7.4 for 5 min. After the dissociation, the flow cell surfaces were regenerated by injecting 10 μl of 10 mM NaOH/1 M NaCl and 10 μl of 10 mM glycine at pH1.5. The assay was repeated at pH5.5 using the same general protocol, where the running and sample dilution buffer was replaced by a HBS-EP buffer supplemented with citrate buffer to 10 mM final concentration and pH adjusted to 5.5.
(§2) The resulting sensorgrams were analyzed using the BIAevaluation 4.1 software using Langmuir 1:1 binding model to derive binding kinetics. Data was zero adjusted and the reference cell sensorgrams were subtracted. Sensorgrams were double referenced to no-analyte blank assay. Fitted parameters were considered not applicable if off-rate values were below the equipment's detection limit of kd: 1×10⁻⁶ 1/s.
On the technique in general: Surface plasmon resonance follows binding to a sensor surface in real time, without labels.

In assay [2] the target is T2, native human ApoC3 (human, UniProt P02656 21-99).
T2 construct: also called nhuApoC3; native huApoC3
Nature of the assay: SPR, ApoC3 over captured IgG1. The protocol: (§3) An inverted SPR assay was designed in which a test antibody was captured on an SPR chip, human ApoC3 protein was injected, and binding of ApoC3 to the antibody was measured. […] The immobilization was performed in accordance with the method provided by Biacore/GE using the NHS/EDC kit (Biacore AB, Cat.nr. BR-1000-50): after activation of the chip, a solution of 30 μg/ml of anti-human Fcγ antibody in 10 mM acetate buffer with pH of 5.0 was prepared and injected until the surface density reached approximately 10000 RU. The analytical cycle comprised the following steps:
(§4) The resulting sensorgrams were analyzed using the BIAevaluation 4.1 software using Langmuir 1:1 binding model to derive binding kinetics. Data was zero adjusted, the reference cell sensorgrams were subtracted and the no analyte blank assay was used for double referencing the sensorgrams corresponding to the analyte injections. The dissociation and association phase sensorgrams were fitted separately for the 4 different concentration curves. Sensorgrams were excluded from the fitting if maximum RU values reached were below the detection limit of the equipment (<5 RU), Biacore 3000 (Biacore AB).

The target in assay [3] is T2, native human ApoC3. Nature of the assay: SPR, ApoC3 over captured IgG1, pH 7.4. As for the experimental part:
as §3, §4

The target of assay [4] is T1, biotinylated native human ApoC3. Nature of the assay: SPR, IgG1 over biotinylated ApoC3 on SA chip, pH 5.5. The protocol:
as §1, §2

Assay [5] shares this target. Description: SPR, IgG1 over biotinylated ApoC3 on SA chip. As for the experimental part: as §1, §2
The target in assay [6] is T2, native human ApoC3. Description: SPR, ApoC3 over captured IgG1, pH 5.5. The protocol:
as §3, §4

T1 sequence (P02656 21-99): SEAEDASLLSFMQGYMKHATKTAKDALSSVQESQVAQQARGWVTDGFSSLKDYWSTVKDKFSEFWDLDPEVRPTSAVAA
T2 sequence (P02656 21-99): as above

B1: mAb5 (antibody, IgG1, V domains shown)
VH: QLVESGGGLVQPGGSLRLSCAASGFTFGTYSMRWVRQAPGKGLEWVSSIHTEGGGTAYRDSVKGRFTISRDNAKNTLYLQMNSLRAEDTAVYYCVIAGYSDWGQGTLVTVSS
VL: DIVMTQSPLSLPVTPGESASISCKTSQGLVHSDGKTYFYWFLQKPGQSPQQLIYQVSNRASGVPDRFTGSGSGTDFTLKISRVKAEDAGVYYCAHGTYYPHTFGQGTRLEIK
notes: Produced as full length IgG1 (kappa) in ExpiCHO-S cells; also called humanized anti-ApoC3 antibody mAb5
For orientation: Kd means the constant that tells how readily two partners part at equilibrium. Read a low Kd as a tighter complex. One may read the koff as the rate constant with which the complex falls apart. A lower koff goes with slow dissociation. As a reminder, the kon is the second-order rate constant of association. Low readings indicate slow association, high ones fast association. On to B1, for which, in assay [1], the Ka was determined as 6.76e+09 M⁻¹, the Kd was found to be 0.15 nM, the koff stood at 3.51e-05 s⁻¹ and the kon came to 237000 M⁻¹ s⁻¹. The “KD (nM) pH5.5/pH7.4” value with native human ApoC3 [2] was found to be 2.25. In the assay with native human ApoC3 [3], the Ka is 5.51e+06 M⁻¹, the off-rate (koff) is 0.00637 s⁻¹ and the kon stood at 35100 M⁻¹ s⁻¹. In addition, in assay [4], the Ka came out at 2.9e+09 M⁻¹, the Kd turned out to be 0.35 nM, the koff came out at 0.000145 s⁻¹ and the kon was 419000 M⁻¹ s⁻¹. For the same molecule, the “KD pH5.5/KD pH7.4” value in assay [5] stood at 2.33. Further, in the assay with native human ApoC3 [6], the Ka was determined as 2.45e+06 M⁻¹, the koff stood at 0.0376 s⁻¹ and the kon worked out at 92000 M⁻¹ s⁻¹.

B2: mAb4 (antibody, IgG1, V domains shown)
VH: QLVESGGGLVQPGGSLRLSCAASGFTFGTYSMRWVRQAPGKGLEWVSSIHTEGGGTAYRDSVKGRFTISRDNAKNTLYLQMNSLRAEDTAIYYCVIAGYSDWGQGTLVTVSS
VL: DIVMTQSPLSLPVTPGESASISCKTSQGLVHSDGKTYFYWFLQKPGQSPQQLIYQVSNRASGVPDRFSGSGSGTDFTLKISRVKAEDAGVYYCAHGTYYPHTFGQGTRLEIK
notes: Produced as full length IgG1 (kappa) in ExpiCHO-S cells; also called humanized anti-ApoC3 antibody mAb4
Take B2: in assay [1], the Ka is 2.15e+11 M⁻¹, the koff came out at 1.13e-06 s⁻¹ and the kon was determined as 243000 M⁻¹ s⁻¹. Also, the “KD (nM) pH5.5/pH7.4” value with native human ApoC3 [2] was determined as 3.48. Besides, in the assay with native human ApoC3 [3], the Ka is 8.06e+06 M⁻¹, the koff worked out at 0.00565 s⁻¹ and the kon turned out to be 45500 M⁻¹ s⁻¹. Moreover, in assay [4], the Ka stood at 2.67e+09 M⁻¹, the Kd came to 0.37 nM, the koff came to 0.000156 s⁻¹ and the kon came out at 416000 M⁻¹ s⁻¹. In addition, in the assay with native human ApoC3 [6], the Ka came to 2.32e+06 M⁻¹, the koff is 0.0359 s⁻¹ and the kon was determined as 83100 M⁻¹ s⁻¹.

B3: mAb1 (antibody, IgG1, V domains shown)
VH: QLVESGGGLVQPGGSLRLSCAASGFTFGTYSMRWVRQVPGKGLEWVSSIHTEGGGTAYRDSVKGRFTISRDNAKNTLYLQMNSLRAEDTAIYYCVIAGYSDWGQGTLVTVSS
VL: DIVMTQSPLSLPVTPGESASISCKTSQGLVHSDGKTYFYWFLQKPGQSPQQLIYQVSNRASGVPDRFTGSGSGTDFTLKISRVKAEDAGVYYCAHGTYYPHTFGQGTRLEIK
notes: Produced as full length IgG1 (kappa) in ExpiCHO-S cells; also called humanized anti-ApoC3 antibody mAb1
In assay [1], B3 registered a Ka of 2.2e+10 M⁻¹, a Kd of 0.05 nM, an off-rate (koff) of 1.18e-05 s⁻¹ and a kon of 261000 M⁻¹ s⁻¹. Also, the “KD (nM) pH5.5/pH7.4” value with native human ApoC3 [2] was determined as 3.42. In the assay with native human ApoC3 [3], this molecule displayed a Ka of 1.35e+07 M⁻¹, a Kd of 74 nM, a koff of 0.00426 s⁻¹ and a kon of 57600 M⁻¹ s⁻¹. In assay [4], this molecule gave a Ka of 4.23e+09 M⁻¹, a Kd of 0.24 nM, a koff of 0.000104 s⁻¹ and a kon of 440000 M⁻¹ s⁻¹. The “KD pH5.5/KD pH7.4” value in assay [5] came to 5.22. In the assay with native human ApoC3 [6], this molecule had a Ka of 3.95e+06 M⁻¹, a koff of 0.0257 s⁻¹ and a kon of 101000 M⁻¹ s⁻¹.

B4: mAb15 (antibody, IgG1, V domains shown)
VH: QLVESGGGLVQPGGSLRLSCAASGFTFGTYSMRWVRQAPGKGLEWVSSIHTEAGGTAYRDSVKGRFTISRDNAKNTLYLQMNNLKAEDTAIYYCVIAGYSDWGQGTQVTVSS
VL: DIVMTQSPLSLPVTPGESASISCKTSQGLVHSGGKTYFYWFLQKPGQSPQQLIYQVSNRASGVPDRFTGSGSGTDFTLKISRVEAEDAGVYYCAQGTYYPHTFGSGTRLEIK
notes: Produced as full length IgG1 (kappa) in ExpiCHO-S cells; also called humanized anti-ApoC3 antibody mAb15
In assay [1], B4 yielded a Ka of 1.86e+11 M⁻¹, a dissociation rate constant (koff) of 2.77e-06 s⁻¹ and a kon of 516000 M⁻¹ s⁻¹. Besides, the “KD (nM) pH5.5/pH7.4” value in the assay with native human ApoC3 [2] came out at 2.48. For the same molecule, in the assay with native human ApoC3 [3], the Ka was found to be 2.88e+07 M⁻¹, the Kd came out at 35 nM, the koff stood at 0.00378 s⁻¹ and the kon worked out at 109000 M⁻¹ s⁻¹. In assay [4], this molecule returned a Ka of 2.83e+09 M⁻¹, an equilibrium dissociation constant (Kd) of 0.35 nM, a koff of 0.000249 s⁻¹ and an association rate constant (kon) of 705000 M⁻¹ s⁻¹. In the assay with native human ApoC3 [6], the Ka worked out at 1.16e+07 M⁻¹, binding was put at a Kd of 86 nM, the koff was 0.0116 s⁻¹ and the kon was 134000 M⁻¹ s⁻¹.

B5: mAb18 (antibody, IgG1, V domains shown)
VH: QLVESGGGLVQPGGSLRLSCAASGFTFSTYSMRWVRQAPGKGLEWVSSIHTEAGGTAYRDSVKGRFTISRDNAKNTLYLQMNNLRAEDTAVYYCVIAGYSDWGQGTLVTVSS
VL: DIVMTQSPLSLPVTPGEPASISCKTSQGLVHSGGKTYFYWFLQKPGQSPQQLIYQVSNRASGVPDRFTGSGSGTDFTLKISRVEAEDAGVYYCAHGTYYPHTFGQGTRLEIK
notes: Produced as full length IgG1 (kappa) in ExpiCHO-S cells; also called humanized anti-ApoC3 antibody mAb18
In assay [1], B5 showed a Ka of 7.49e+08 M⁻¹, a koff of 0.000838 s⁻¹ and a kon of 628000 M⁻¹ s⁻¹. Besides, in the assay with native human ApoC3 [3], the Ka stood at 1.97e+06 M⁻¹, the koff worked out at 0.0539 s⁻¹ and the kon came to 106000 M⁻¹ s⁻¹. In assay [4], this molecule yielded a Ka of 1.16e+08 M⁻¹, a koff of 0.0155 s⁻¹ and a kon of 1.79e+06 M⁻¹ s⁻¹. In addition, the “KD pH5.5/KD pH7.4” value in assay [5] came out at 6.48.

B6: mAb16 (antibody, IgG1, V domains shown)
VH: QLVESGGGLVQPGGSLRLSCAASGFTFGTYSMRWVRQAPGKGLEWVSSIHTEAGGTAYRDSVKGRFTISRDNAKNTLYLQMNNLKAEDTAIYYCVIAGYSDWGQGTQVTVSS
VL: DIVMTQSPLSLPVTPGESASISCKTSQGLVHSGGKTYFYWFLQKPGQSPQQLIYQVSNRASGVPDRFTGSGSGTDFTLKISRVEAEDAGVYYCAHGTYYPHTFGSGTRLEIK
notes: Produced as full length IgG1 (kappa) in ExpiCHO-S cells; also called humanized anti-ApoC3 antibody mAb16
In assay [1], B6 displayed a Ka of 1.46e+09 M⁻¹, a Kd of 0.69 nM, a koff of 0.000375 s⁻¹ and a kon of 546000 M⁻¹ s⁻¹. Besides, in the assay with native human ApoC3 [3], the Ka came out at 1.68e+06 M⁻¹, the off-rate constant (koff) was determined as 0.0466 s⁻¹ and the kon came out at 78100 M⁻¹ s⁻¹. In assay [4], this molecule yielded a Ka of 1.34e+08 M⁻¹, a koff of 0.0121 s⁻¹ and a kon of 1.63e+06 M⁻¹ s⁻¹. Further, in assay [5], the “KD pH5.5/KD pH7.4” value was 10.8.

B7: mAb20 (antibody, IgG1, V domains shown)
VH: QLVESGGGLVQPGGSLRLSCAASGFTFSTYSMRWVRQAPGKGLEWVSSIHTDAGGTAYRDSVKGRFTISRDNAKNTLYLQMNNLRPEDTAVYYCVIAGYSDWGQGTLVTVSS
VL: DIVMTQSPGSLSVTPGEPASISCKTSQGLVHSGGKTYFYWFLQKPGQSPQQLIYQVSNRASGVPDRFTGSGSGTDFTLKISGVEAEDAGVYYCAHGTYYPHTFGQGTRLEIK
notes: Produced as full length IgG1 (kappa) in ExpiCHO-S cells; also called humanized anti-ApoC3 antibody mAb20
In assay [1], B7 yielded a Ka of 1.71e+09 M⁻¹, a Kd of 0.59 nM, a koff of 0.000487 s⁻¹ and a kon of 831000 M⁻¹ s⁻¹. In the assay with native human ApoC3 [3], this molecule came in with a Ka of 747000 M⁻¹, a koff of 0.0737 s⁻¹ and a kon of 55100 M⁻¹ s⁻¹. In assay [4], the Ka amounted to 1.06e+08 M⁻¹, the koff was found to be 0.0214 s⁻¹ and the kon is 2.27e+06 M⁻¹ s⁻¹. Besides, the “KD pH5.5/KD pH7.4” value in assay [5] turned out to be 16.1.
